For this assay, the target named is T1, Flag-tagged Iso1, MC1R-TUBB3 in-frame intergenic splice chimera (human).
T1 construct: numbers count on: MC1R-002; Tubulin-β-III, human; A BamHI site in the TUBB3 part was ablated by site-directed mutagenesis (ATC to ATT by the printed primer, silent by my reading); also called Flag-Iso1; MC1R-TUBB3 chimeric isoform Iso1; source: HEK293T, transfected (pcDNA3); not shown: Flag, N-terminal, kept
In words: radioligand binding; equilibrium competition binding on transfected HEK293T cells, 24 h after transfection, serum deprived 3 h; 125I-NDP-MSH 5x10^-11 M with unlabelled NDP-MSH from 10^-12 to 10^-7 M. The note with it: one partner purified.

The text below walks through data of article PMC4676704, “Functional Characterization of MC1R-TUBB3 Intergenic Splice Variants of the Human Melanocortin 1 Receptor” (PLoS ONE, 2015).

B1: [Nle4, D-Phe7]-αMSH (NDP-MSH), 125I-labelled (peptide)
chain: SYSLEHFRWGKPV
modifications: not fully specified; Nle at position 4; D-Phe at position 7; 125I label (tracer)
For B1, the Kd is 0.59 nM.

The Kd is the free concentration of one partner at which half of the binding sites on the other are occupied at equilibrium, for simple one-to-one binding. Lower therefore signals tighter binding.
